In the supplement of paper PMC10126150:
± gives the standard deviation of the averaged measurements.

Tested on: ATP
Assay: switch fluorescence ratio, 500 uM ATP over buffer (Cy3 cluster intensity, sum of 5 cycles each) (fold (ratio)); higher = stronger signal-on switching upon ATP binding; sequences stand for … in TCGTCGGCAGCGTCAGATGTGTATAAGAGACAGTTTTTTTTTTTTTTTTTTTTTTTTT…TC
Details: aptamer strand: ATP DNA aptamer (quencher-CACCTGGGGGAGTATTGCGGAGGAAGG + anchor), 100 nM annealed; ATP concentration: 500 uM
Method in brief: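 Imaging in selection buffer was followed by imaging after 15 min with 500 uM ATP at 22 °C, for Cy3-labelled switching-strand clusters annealed to 100 nM quencher-labelled ATP aptamer on a modified Illumina MiSeq flow-cell. Five of these buffer/ATP cycles ran, separated by NaOH stripping and re-annealing. The fluorescence ratio per cluster is summed target-cycle over summed buffer-cycle Cy3 intensity, averaged per switch-domain sequence; clusters outside 100-1000 RFU were removed.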
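Note: ATP exposure 15 min at 22 °C before imaging.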

GGGGGCTTAT and GGGGGGAACG are within error of each other in switch fluorescence ratio: 1.01 ± 0.017 for the first, 0.971 ± 0.024 for the second.

GGGGGGAAGT and GGGGGGAATT are within error of each other in switch fluorescence ratio: 1.01 ± 0.022 for the first, 1.05 ± 0.1 for the second.

GGGGGGACAC and GGGGGGAGAG are within error of each other in switch fluorescence ratio: 1.031 ± 0.0019 for the first, 0.989 ± 0.045 for the second.

GGGGGGAGTT and GGGGGGATAG are within error of each other in switch fluorescence ratio: 0.999 ± 0.038 for the first, 1 ± 0.031 for the second.

GGGGGGATGG and GGGGGGATTC are within error of each other in switch fluorescence ratio: 1.07 ± 0.23 for the first, 1.01 ± 0.019 for the second.

GGGGGGCAAC and GGGGGGCAGC are within error of each other in switch fluorescence ratio: 1.03 ± 0.099 for the first, 1 ± 0.017 for the second.

GGGGGGCATA and GGGGGGCCCA are within error of each other in switch fluorescence ratio: 1.01 ± 0.012 for the first, 1.0208 ± 0.00082 for the second.

GGGGGGCCCG and GGGGGGCCGA are within error of each other in switch fluorescence ratio: 1.35 ± 0.45 for the first, 1.01 ± 0.03 for the second.

GGGGGGCCTA and GGGGGGCGGC are within error of each other in switch fluorescence ratio: 0.988 ± 0.046 for the first, 1.01 ± 0.046 for the second.

GGGGGGCTCG and GGGGGGCTGT are the same in switch fluorescence ratio: 0.973 ± 0.064 for the first, 0.973 ± 0.047 for the second.

GGGGGGCTTC and GGGGGGGATA are within error of each other in switch fluorescence ratio: 0.975 ± 0.019 for the first, 1 ± 0.038 for the second.

GGGGGGGCAC and GGGGGGGGG are within error of each other in switch fluorescence ratio: 1.01 ± 0.029 for the first, 1 ± 0.04 for the second.

GGGGGGGTAA and GGGGGGGTCC are within error of each other in switch fluorescence ratio: 0.993 ± 0.027 for the first, 0.99 ± 0.025 for the second.

GGGGGGGTCT and GGGGGGTAA are within error of each other in switch fluorescence ratio: 0.973 ± 0.044 for the first, 1.01 ± 0.019 for the second.

GGGGGGTAAA and GGGGGGTACC are within error of each other in switch fluorescence ratio: 1.04 ± 0.075 for the first, 1.08 ± 0.13 for the second.

GGGGGGTAGG and GGGGGGTCAG are the same in switch fluorescence ratio: 1.01 ± 0.029 for the first, 1.01 ± 0.025 for the second.

GGGGGGTCTC and GGGGGGTGTA are within error of each other in switch fluorescence ratio: 0.996 ± 0.029 for the first, 1 ± 0.055 for the second.

GGGGGGTTAA and GGGGGGTTGG are within error of each other in switch fluorescence ratio: 1.02 ± 0.028 for the first, 0.989 ± 0.031 for the second.

GGGGGTAAGG and GGGGGTACAC are within error of each other in switch fluorescence ratio: 0.987 ± 0.034 for the first, 1.01 ± 0.025 for the second.

GGGGGTACGT and GGGGGTATGG are within error of each other in switch fluorescence ratio: 0.989 ± 0.03 for the first, 0.983 ± 0.032 for the second.

GGGGGTATGT and GGGGGTCAGC are within error of each other in switch fluorescence ratio: 0.997 ± 0.02 for the first, 1 ± 0.025 for the second.

GGGGGTCG and GGGGGTCGCG are within error of each other in switch fluorescence ratio: 1.03 ± 0.081 for the first, 0.991 ± 0.034 for the second.

GGGGGTCGGG and GGGGGTGCAG are within error of each other in switch fluorescence ratio: 1 ± 0.036 for the first, 0.975 ± 0.011 for the second.

GGGGGTGGG and GGGGGTGTCA are within error of each other in switch fluorescence ratio: 1.03 ± 0.069 for the first, 0.968 ± 0.0099 for the second.

GGGGGTTACG and GGGGGTTAGA are within error of each other in switch fluorescence ratio: 0.998 ± 0.03 for the first, 1 ± 0.035 for the second.

GGGGGTTATA and GGGGGTTCCG are within error of each other in switch fluorescence ratio: 0.965 ± 0.016 for the first, 0.98 ± 0.021 for the second.

GGGGGTTGCA and GGGGGTTGGG are within error of each other in switch fluorescence ratio: 0.965 ± 0.016 for the first, 1.01 ± 0.043 for the second.

GGGGGTTTAA and GGGGGTTTGC are within error of each other in switch fluorescence ratio: 1.02 ± 0.014 for the first, 0.991 ± 0.059 for the second.

GGGGGTTTTG and GGGGTAAGGG are within error of each other in switch fluorescence ratio: 0.993 ± 0.038 for the first, 1 ± 0.028 for the second.

GGGGTAAGGT and GGGGTAATCA are within error of each other in switch fluorescence ratio: 0.99 ± 0.036 for the first, 0.999 ± 0.018 for the second.

GGGGTAATCC and GGGGTAATGG are within error of each other in switch fluorescence ratio: 1.07 ± 0.14 for the first, 0.993 ± 0.034 for the second.

GGGGTACGTA and GGGGTACGTT are the same in switch fluorescence ratio: 1 ± 0.08 for the first, 1 ± 0.032 for the second.

GGGGTACTAC and GGGGTAGCCT are the same in switch fluorescence ratio: 1.003 ± 0.0053 for the first, 1 ± 0.04 for the second.

GGGGTAGGTG and GGGGTAGTGG are within error of each other in switch fluorescence ratio: 1.08 ± 0.068 for the first, 0.981 ± 0.05 for the second.

GGGGTAGTTT and GGGGTCACGG are within error of each other in switch fluorescence ratio: 1.02 ± 0.027 for the first, 1.006 ± 0.0027 for the second.

GGGGTCAGCC and GGGGTCCAAG are within error of each other in switch fluorescence ratio: 1.06 ± 0.13 for the first, 1 ± 0.017 for the second.

Compared with GGGGTCGACG, GGGGTCGGGC is lower in switch fluorescence ratio: 1.033 ± 0.0092 for the first, 0.998 ± 0.015 for the second.

GGGGTCGGTT and GGGGTGAATG are within error of each other in switch fluorescence ratio: 1.01 ± 0.051 for the first, 0.974 ± 0.04 for the second.

GGGGTGACGG and GGGGTGAGGG are within error of each other in switch fluorescence ratio: 1.004 ± 0.0055 for the first, 0.971 ± 0.032 for the second.

GGGGTGAGTT and GGGGTGATCT are within error of each other in switch fluorescence ratio: 0.931 ± 0.072 for the first, 1.02 ± 0.034 for the second.

GGGGTGATGC and GGGGTGATGG are within error of each other in switch fluorescence ratio: 1.07 ± 0.061 for the first, 1.02 ± 0.02 for the second.

GGGGTGATGT and GGGGTGCTAT are within error of each other in switch fluorescence ratio: 0.9803 ± 0.0066 for the first, 1.01 ± 0.043 for the second.

GGGGTGGCCA and GGGGTGGGCG are within error of each other in switch fluorescence ratio: 0.99 ± 0.0098 for the first, 1.01 ± 0.058 for the second.

GGGGTGGTTA and GGGGTGTCGG are within error of each other in switch fluorescence ratio: 0.9948 ± 0.005 for the first, 1.05 ± 0.14 for the second.

GGGGTGTGTG and GGGGTGTTTG are within error of each other in switch fluorescence ratio: 0.986 ± 0.021 for the first, 0.981 ± 0.022 for the second.

GGGGTTAAAA and GGGGTTAAGG are within error of each other in switch fluorescence ratio: 0.973 ± 0.024 for the first, 0.978 ± 0.029 for the second.

GGGGTTAAGT and GGGGTTAATA are within error of each other in switch fluorescence ratio: 0.98 ± 0.014 for the first, 1 ± 0.067 for the second.

GGGGTTACGC and GGGGTTAGGA are within error of each other in switch fluorescence ratio: 1.03 ± 0.059 for the first, 0.979 ± 0.019 for the second.

GGGGTTATGT and GGGGTTATTT are within error of each other in switch fluorescence ratio: 0.979 ± 0.021 for the first, 0.988 ± 0.038 for the second.

GGGGTTCAGC and GGGGTTCCGG are within error of each other in switch fluorescence ratio: 0.978 ± 0.038 for the first, 0.941 ± 0.032 for the second.
